T1: rhesus monkey CD40 (cell surface) (rhesus monkey, UniProt F6SNI1 21-278)
T1 chain: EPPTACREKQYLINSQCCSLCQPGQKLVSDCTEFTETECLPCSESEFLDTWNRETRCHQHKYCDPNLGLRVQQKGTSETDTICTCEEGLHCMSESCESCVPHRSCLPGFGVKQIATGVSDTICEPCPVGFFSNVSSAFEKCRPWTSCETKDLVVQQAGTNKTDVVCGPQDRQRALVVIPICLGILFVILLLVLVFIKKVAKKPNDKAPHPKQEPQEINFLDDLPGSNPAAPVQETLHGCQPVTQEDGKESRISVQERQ

T2: cynomolgus monkey CD40 (cell surface)
T2 chain: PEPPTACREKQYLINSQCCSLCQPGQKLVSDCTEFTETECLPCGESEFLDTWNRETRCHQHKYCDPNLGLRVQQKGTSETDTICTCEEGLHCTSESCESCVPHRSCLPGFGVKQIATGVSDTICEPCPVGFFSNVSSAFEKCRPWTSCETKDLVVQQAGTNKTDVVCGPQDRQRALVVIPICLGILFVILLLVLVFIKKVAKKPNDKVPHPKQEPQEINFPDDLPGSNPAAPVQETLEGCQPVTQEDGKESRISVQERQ

T3: human FcγR CD32a R131-GST fusion protein (human, UniProt P12318 34-217)
T3 chain: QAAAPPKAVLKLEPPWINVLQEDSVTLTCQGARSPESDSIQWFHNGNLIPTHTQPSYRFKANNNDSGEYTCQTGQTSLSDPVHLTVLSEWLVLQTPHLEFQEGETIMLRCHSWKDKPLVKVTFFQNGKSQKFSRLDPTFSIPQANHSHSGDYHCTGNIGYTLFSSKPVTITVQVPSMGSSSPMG

T4: human FcγR CD64-GST fusion protein (human, UniProt P12314 16-292)
T4 chain: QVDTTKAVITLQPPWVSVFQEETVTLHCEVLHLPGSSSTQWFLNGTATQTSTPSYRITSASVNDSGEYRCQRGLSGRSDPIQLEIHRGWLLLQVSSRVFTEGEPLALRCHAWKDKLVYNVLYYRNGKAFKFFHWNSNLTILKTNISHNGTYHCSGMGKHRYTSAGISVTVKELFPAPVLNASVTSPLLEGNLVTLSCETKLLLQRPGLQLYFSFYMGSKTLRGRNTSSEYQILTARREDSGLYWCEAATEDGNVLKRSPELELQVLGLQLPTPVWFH

T5: human FcγR CD32b-GST fusion protein (human, UniProt P31994 43-217)
T5 chain: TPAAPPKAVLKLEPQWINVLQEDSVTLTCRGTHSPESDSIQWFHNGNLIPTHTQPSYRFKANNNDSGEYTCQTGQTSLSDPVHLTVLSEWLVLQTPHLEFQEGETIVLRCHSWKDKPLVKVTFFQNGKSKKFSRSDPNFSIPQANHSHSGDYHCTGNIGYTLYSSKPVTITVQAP


Key:
[1] = biological target: T1, rhesus monkey CD40 (cell surface); assay: flow cytometry, CHO-CD40; avid
[2] = biological target: T6, human CD40 (cell surface) (UniProt P25942 20-277); assay: flow cytometry, CHO-CD40; avid
[3] = biological target: T2, cynomolgus monkey CD40 (cell surface); assay: flow cytometry, CHO-CD40; avid
[4] = biological target: T6, human CD40 (cell surface); assay: flow cytometry; 4-P fit parameter C
[5] = biological target: T6, human CD40 (cell surface); assay: flow cytometry, B cells in whole blood; A647-conjugated
[6] = biological target: T6, human CD40 (cell surface); assay: flow cytometry, B cells in whole blood; geometric mean, A647-conjugated
[7] = biological target: T2, cynomolgus monkey CD40 (cell surface); assay: as above
[8] = biological target: human FcγR CD16a V158-GST fusion protein (human, UniProt P08637 17-208); assay: ALPHAscreen competition
Sequence of human FcγR CD16a V158-GST fusion protein (P08637 17-208 F176V): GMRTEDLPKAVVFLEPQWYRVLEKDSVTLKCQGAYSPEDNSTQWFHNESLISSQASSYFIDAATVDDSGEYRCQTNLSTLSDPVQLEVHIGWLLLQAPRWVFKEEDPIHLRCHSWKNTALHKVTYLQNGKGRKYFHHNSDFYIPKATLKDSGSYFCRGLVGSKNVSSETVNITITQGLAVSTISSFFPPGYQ

[9] = biological target: T3, human FcγR CD32a R131-GST fusion protein; assay: ALPHAscreen competition
[10] = biological target: T4, human FcγR CD64-GST fusion protein; assay: ALPHAscreen competition
[11] = biological target: T5, human FcγR CD32b-GST fusion protein; assay: ALPHAscreen competition

Binder	EC50 [1]	EC50 [2]	EC50 [3]	EC50 [4]	EC50 [5]	EC50 [6]	EC50 [7]	IC50 [8]	IC50 [9]	IC50 [10]	IC50 [11]
Agly hAKH3 IgG4P/IgG1 (antibody, V domains shown) VH: EVQLVQSGAEVKKPGASVKVSCKASGYTFTTFPIEWVRQAPGQGLEWMGNFHPYNDDTKYNEKFKGRVTLTADKSTSTAYMELSRLRSEDTAVYYCARRGKLPFDSWGQGTTVTVSS VL: DIQMTQSPSSLSASVGDRVTISCRASQDISNYLNWYQQKPGKVPKLLIYFTSRLRSGVPSRFSGSGSGTDYTLTISSLQPEDVATYYCQQDRKLPWTFGQGTKLEIK	0.249 mg/L	0.0895 mg/L	0.131 mg/L	0.0804 mg/L	0.0777 mg/L	0.0626 mg/L	0.109 mg/L	–	–	–	–
Exemplary Anti-CD40 Antibody 1 (antibody, Alexa647 conjugate in some whole-blood assays; N-linked glycan on the heavy chain; neither is carried by the letters.) heavy: not shown light: DIQMTQSPSSLSASVGDRVTISCRASQDISNYLNWYQQKPGKVPKLLIYFTSRLRSGVPSRFSGSGSGTDYTLTISSLQPEDVATYYCQQDRKLPWTFGQGTKLEIKRTVAAPSVFIFPPSDEQLKSGTASVVCLLNNFYPREAKVQWKVDNALQSGNSQESVTEQDSKDSTYSLSSTLTLSKADYEKHKVYACEVTHQGLSSPVTKSFNRGEC	–	–	–	–	–	–	–	680 mg/L	118 mg/L	14.7 mg/L	282 mg/L

Source: US20170233485A1 (published 2017)
